According to paper PMC3600821:

Each substance was assayed against Skeletal muscle actin (F-actin) (rabbit) (UniProt P68135).

Row | actin-activated Mg-ATPase: K (ATPase) (the actin concentration giving V=Vmax/2) [µM] | actin-activated Mg-ATPase: Vmax/K (ATPase) (catalytic efficiency) [M⁻¹ s⁻¹] | Substance
1 | 59 | 130000 | M761-2R (761-aa wild-type Dictyostelium myosin II catalytic domain fused to two α-actinin repeats) (from UniProt P08799 1-761)
2 | 15.8 | 1.23e+06 | Muscle S1 (skeletal muscle myosin II subfragment 1) (domain or fragment)
3 | 17.3 | 180000 | S619C-IQ (S619C construct extended to include one IQ domain) (from UniProt P08799 1-790) (domain or fragment)
